Reference: US11827690B2, “ApoC-II mimetic peptides” (THE UNITED STATES OF AMERICA, as represented by the …, priority 2017, dated 2023)
Non-standard residues stand in square brackets, D forms with d. No end group written: not given here. *: point of attachment. Stearoyl = CCCCCCCCCCCCCCCCCC(=O)*; Palmitoyl = CCCCCCCCCCCCCCCC(=O)*; Nle = CCCC[C@H](N)C(=O)O; Aib = CC(C)(N)C(=O)O

How the values were obtained:
bovine LPL [1] = target: T1, bovine LPL (Bos taurus, UniProt P11151); assay: in vitro LPL assay using apoC-II deficient patient sera as substrate; assay type: biochemical; settings: for effect of lipidation on ability of C2thirdhelix to promote TG hydrolysis: FIG. 9; for promoting TG hydrolysis in the presence of LPL: FIG. 6; for LPL activation / TG hydrolysis: FIG. 52
T1 sequence (P11151 29-478): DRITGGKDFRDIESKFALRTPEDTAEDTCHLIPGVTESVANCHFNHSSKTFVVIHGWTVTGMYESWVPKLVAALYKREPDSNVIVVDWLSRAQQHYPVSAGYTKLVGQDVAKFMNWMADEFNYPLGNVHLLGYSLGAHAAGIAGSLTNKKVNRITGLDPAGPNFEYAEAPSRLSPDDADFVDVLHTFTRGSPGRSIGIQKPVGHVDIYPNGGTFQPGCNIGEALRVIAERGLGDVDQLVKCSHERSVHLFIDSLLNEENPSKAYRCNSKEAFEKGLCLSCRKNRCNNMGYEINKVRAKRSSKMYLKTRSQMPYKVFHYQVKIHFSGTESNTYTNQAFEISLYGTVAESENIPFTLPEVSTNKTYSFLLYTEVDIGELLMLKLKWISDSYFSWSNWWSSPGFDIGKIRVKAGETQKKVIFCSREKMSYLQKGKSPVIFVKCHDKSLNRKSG
Description: (§1) Preparation of LPL: frozen stock of 10 μL of 0.5 mg/mL bovine LPL was used and diluted 1:100 (10 μL+990 μL of PBS).
Preparation of 20% Intralipid: 2000 mg/dL TG Intralipid was used to prepare 3 mg/dL TG Intralipid by diluting 1.5 μL of the stock with 998.5 μL PBS, or by diluting the stock 1:10 first and then mixing 15 μL of the diluted stock with 985 μL PBS. When apoC-II deficient human serum was used as a substrate, a frozen 10 μL aliquot of 1711 mg/dL (TG) was diluted by adding 990 μL PBS (1:100 dilution).
(§2) Preparation of free fatty acid (NEFA) assay: NEFA reagents were purchased from Wako Diagnostics, Wako Life Sciences, Inc. Reagent A was prepared by mixing Coloring Reagent A with Solvent A (225 μL per well). Reagent B was prepared by mixing Coloring Reagent B with Solvent B (75 μL per well). 5 nmoL oleic acid standard was prepared by diluting 20 μL of 1 mM oleic acid stock (WAKO NEFA standard solution) with 180 μL of 0.2% BSA.
(§3) LPL activity assay: 10 μL of Intralipid, human plasma sample, or mouse plasma sample was added in each well using repeater pipette. 10 μL (or 15 μL in the wells with no LPL control) of PBS and 10 μL of 1% BSA was added in each well using repeater pipette. 10 μL of peptides were added to corresponding wells in vertical triplicates (lowest concentration is on a left, highest is on the right). The plate was spun down at 1000 RPM for 10 seconds to mix and to remove the solutions from the wall of each well. The plate was put on ice and 5 μL of LPL was added using repeater pipette. The plate was spun down again at 1000 RPM for 10 seconds. The plate was covered and put back on ice for an incubation of 30 min. The plate was then moved to 37° C. and incubated for 1 hour.
(§4) Free fatty acids (NEFA) assay: 45 μL of 5 nmoL standard and 0 nmoL control (0.2% BSA) were added to corresponding wells. 225 μL of reagent A was added in each well using the reagent tray and 12-channel pipette. The plate was incubated for 10 min before 75 μL of reagent B was added to each well using the reagent tray and 12-channel pipette. The plate was not covered due to the high volume. The absorbance at 550 nm and 660 nm was measured.

apoC-II knockout mice = assay: plasma lipids of apoC-II knockout mice after peptide injection; assay type: in vivo
Description: C57Bl/6 mice (wild-type), apoC-II knockout (apoC-II KO) mice, and apoC-III transgenic mice were used for in vivo study. The C57Bl/6 mice (wild-type) were purchased from Taconic Biosciences Inc. The apoC-II KO mice were created as described in Sakurai et al., J Pharmacol Exp Ther 356:341-353, 2016. The apoC-III transgenic mice were generated by overexpressing human apoC-III in C57Bl/6 mice. See Qu et al., J. Lipid Res. 48:1476-1487, 2007.
Mice were fasted overnight (approximately 12 hours) before the study and 6 hours during the study, the next day. The apoC-II mimetic peptides were synthetically produced and free of biological contamination (not available as FDA approved compounds/treatment). […] W.) administered either subcutaneous injection (S.Q. or S.C.), intraperitoneal injection (I.P.) or intravenous injection (I.V.) (in a sterile, pharmaceutical grade PBS solution at a volume ≤200 μL) as described in Sakurai et al., J Pharmacol Exp Ther 356:341-353, 2016.

bovine LPL [2] = target: T1, bovine LPL; assay: in vitro LPL assay using hypertriglyceridemia patient sera as substrate; assay type: biochemical; settings: patient sera TG about 1000 mg/dL to about 1700 mg/dL, FIGS. 15A-D
Description: as §1, §2, §3, §4

[3] = tested on: VLDL isolated from human plasma; assay: ApoC-III displacement study in VLDL isolated from human plasma; assay type: binding; settings: SDS PAGE
Description: VLDL or chylomicrons isolated from human plasma were incubated with an apoC-II mimetic peptide for 1 hour at 37° C. and washed 3 times with PBS using spin filter with 100 kDa cutoff membrane. […] ApoC-I, apoC-II, apoC-III, and apoE bands were identified by their corresponding size.

[4] = concentrations from 100 pM to 10 μM, FIG. 12
[5] = 0.25 μmol/kg of body weight intraperitoneal, FIG. 24

In the case of “AKC18STYTGIFTDQVLSVLKGEE (AK(Stearoyl)STYTGIFTDQVLSVLKGEE) [C2thirdhelixStearylpos2]”, the “effect of lipidation on ability of C2thirdhelix to promote TG hydrolysis” value (“effect of lipidation” below) (bovine LPL [1]) is reported as “lipidation enhanced the ability of C2thirdhelix to promote TG hydrolysis”.
For “AMSTYTGIFTDQVLSVLKC18GEE (AMSTYTGIFTDQVLSVLK(Stearoyl)GEE) [C2thirdhelixStearylpos17]”, the “effect of lipidation” value (bovine LPL [1]) was “lipidation enhanced the ability of C2thirdhelix to promote TG hydrolysis”.
“C18AMSTYTGIFTDQVLSVLKGEE (Stearoyl-AMSTYTGIFTDQVLSVLKGEE) [C2thirdhelixStearylpos1]” was tested, and the “effect of lipidation” value (bovine LPL [1]) was “lipidation enhanced the ability of C2thirdhelix to promote TG hydrolysis”.
For “C18DYLKAVFEKKC18RDLYSKFTAAnLSTYTGIFTDQVLSVLKGEE (Stearoyl-DYLKAVFEKK(Stearoyl)RDLYSKFTAA[Nle]STYTGIFTDQVLSVLKGEE) [bi-acyl-Delta4]”, the “promoting TG hydrolysis in the presence of LPL” value (bovine LPL [1]) was “capable of promoting TG hydrolysis in the presence of LPL”.
For “C18DYLKAVFEKLRDLYSKFTAAnLSTYTGIFTDQVLSVLKGEE (Stearoyl-DYLKAVFEKLRDLYSKFTAA[Nle]STYTGIFTDQVLSVLKGEE) [mono-acyl-Delta4]”, the “promoting TG hydrolysis in the presence of LPL” value (bovine LPL [1]) was “capable of promoting TG hydrolysis in the presence of LPL”.
In the case of “DKVKEFLSEYWEKAKEFAPAVSTYTGIFTDQVLSVLKGEE [Delta13-31-PV]”, the “LPL activation / TG hydrolysis” value (bovine LPL [1]) is reported as “promoted TG hydrolysis in vitro in a dose-dependent manner”.
For “DYLKAVFEKKC18RDLYSKFTPAMSTYTGIFTDQVLSVLKGEE (DYLKAVFEKK(Stearoyl)RDLYSKFTPAMSTYTGIFTDQVLSVLKGEE) [Delta4b-2]”, the TG hydrolysis (bovine LPL [1]; [4]) was “promoted TG hydrolysis in a dose-dependent manner”.
“DYLKAVFEKLRDLYSKFFPAMSTYTGIFTDQVLSVLKGEE [Delta4b T18F]” was tested, and the TG hydrolysis (bovine LPL [1]; [4]) was “promoted TG hydrolysis in a dose-dependent manner”.
“DYLKAVFEKLRDLYSKFTAAKC16STYTGIFTDQVLSVLKGEE (DYLKAVFEKLRDLYSKFTAAK(Palmitoyl)STYTGIFTDQVLSVLKGEE) [Delta4c]” was tested, and the TG hydrolysis (bovine LPL [1]; peptide concentrations from 10 pM to 100 μM, FIG. 13) was “promoted TG hydrolysis”.
With “DYLKAVKC18EKLRDLYSKFTPAMSTYTGIFTDQVLSVLKGEE (DYLKAVK(Stearoyl)EKLRDLYSKFTPAMSTYTGIFTDQVLSVLKGEE) [Delta4b-1]” the TG hydrolysis (bovine LPL [1]; [4]) was “promoted TG hydrolysis in a dose-dependent manner”.
For “DYLKEVAibEKLRDLYEKAibFPAVSTYTGIFTDQVLSVLKGEE (DYLKEV[Aib]EKLRDLYEK[Aib]FPAVSTYTGIFTDQVLSVLKGEE) [Delta6T18F-PV-AIB7,17]”, the “LPL activation / TG hydrolysis” value (bovine LPL [1]) was “activated LPL in vitro”.
“DYLKEVFEKLRDLYEKFFPAVSTYTGIFTDQVLSVLKGEE [Delta6T18F-PV]” was tested, and the “time of maximum reduction of plasma TG” value (apoC-II knockout mice; 0.1 μmol/kg intraperitoneally, after the peptide injection) was “about 6 hours”, the “plasma TG” value (apoC-II knockout mice; 0.1 μmol/kg of body weight intraperitoneally, FIG. 53) was “rapid reduction of plasma TG” and the “LPL activation / TG hydrolysis” value (bovine LPL [1]) was “activated LPL in vitro”.
With “DYLKEVFEKLRDLYEKFTAALSTYTGIFTDQVLSVLKGEE (not fully specified) [Delta6L]” the LPL activation (bovine LPL [2]) was “activated LPL in vitro”.
“DYLKEVFEKLRDLYEKFTAAnLSTYTGIFTDQVLSVLKGEENH2 (DYLKEVFEKLRDLYEKFTAA[Nle]STYTGIFTDQVLSVLKGEE-NH2; N-terminus assumed; SMILES CCCC[C@H](NC(=O)[C@H](C)NC(=O)[C@H](C)NC(=O)[C@@H](NC(=O)[C@H](Cc1ccccc1)NC(=O)[C@H](CCCCN)NC(=O)[C@H](CCC(=O)O)NC(=O)[C@H](Cc1ccc(O)cc1)NC(=O)[C@H](CC(C)C)NC(=O)[C@H](CC(=O)O)NC(=O)[C@H](CCCNC(=N)N)NC(=O)[C@H](CC(C)C)NC(=O)[C@H](CCCCN)NC(=O)[C@H](CCC(=O)O)NC(=O)[C@H](Cc1ccccc1)NC(=O)[C@@H](NC(=O)[C@H](CCC(=O)O)NC(=O)[C@H](CCCCN)NC(=O)[C@H](CC(C)C)NC(=O)[C@H](Cc1ccc(O)cc1)NC(=O)[C@@H](N)CC(=O)O)C(C)C)[C@@H](C)O)C(=O)N[C@@H](CO)C(=O)N[C@H](C(=O)N[C@@H](Cc1ccc(O)cc1)C(=O)N[C@H](C(=O)NCC(=O)N[C@H](C(=O)N[C@@H](Cc1ccccc1)C(=O)N[C@H](C(=O)N[C@@H](CC(=O)O)C(=O)N[C@@H](CCC(N)=O)C(=O)N[C@H](C(=O)N[C@@H](CC(C)C)C(=O)N[C@@H](CO)C(=O)N[C@H](C(=O)N[C@@H](CC(C)C)C(=O)N[C@@H](CCCCN)C(=O)NCC(=O)N[C@@H](CCC(=O)O)C(=O)N[C@@H](CCC(=O)O)C(N)=O)C(C)C)C(C)C)[C@@H](C)O)[C@@H](C)CC)[C@@H](C)O)[C@@H](C)O) [Delta6-NH]” was tested, and the “apoC-III displacement in VLDL” value [3] was “capable of displacing apoC-III” and the “plasma TG” value (apoC-II knockout mice; [5]) was “significant reduction of plasma TG”.
With “DYLKEVFEKLRDLYEKFTPALSTYTGIFTDQVLSVLKGEE [Delta6PL]” the LPL activation (bovine LPL [2]) was “activated LPL in vitro”.
With “DYLKEVFEKLRDLYEKKC18TAAnLSTYTGIFTDQVLSVLKGEE (DYLKEVFEKLRDLYEKK(Stearoyl)TAA[Nle]STYTGIFTDQVLSVLKGEE) [Delta6b-A]” the “apoC-III displacement in VLDL” value [3] was “capable of displacing apoC-III” and the “plasma TG” value (apoC-II knockout mice; [5]) was “significant reduction of plasma TG”.
For “DYLKEVFEKLRDLYEKKC18TPAnLSTYTGIFTDQVLSVLKGEE (DYLKEVFEKLRDLYEKK(Stearoyl)TPA[Nle]STYTGIFTDQVLSVLKGEE) [Delta6b-P]”, the “apoC-III displacement in VLDL” value [3] was “capable of displacing apoC-III” and the “plasma TG” value (apoC-II knockout mice; [5]) was “significant reduction of plasma TG”.
